The values below come from patent US6020130, “Nucleic acid ligands that bind to and inhibit DNA polymerases” (NeXstar Pharmaceuticals, Inc.).

Series [1] has as its target T1, Taq DNA polymerase (UniProt P19821 P19821:1-832). Put plainly: filter. To be noted: tags: rTaq, 94 kDa, Roche Molecular Systems / Perkin Elmer; stem-loop dimer. Here is the method:
For isolation of DNA molecules that bind tightly to Taq polymerase and Tth polymerase, respectively, the nitrocellulose filter partitioning method was used as described in the SELEX Patent Applications. Briefly, gel-purified ^32P ss-DNA pools labeled at the 5' end were suspended in the binding buffer, heated to 80° C., chilled on ice and then brought to room temperature. The DNA (5–10 pM) was then incubated for 15 minutes at room temperature with varying amounts of the target polymerase in 50 µL of the appropriate binding buffer containing 0.1 µg of tRNA and 0.01% hSA. The DNA concentrations were kept lower than 100 pM to ensure equilibrium in the presence of excess protein concentrations. After 15 minutes the binding reaction mixtures were passed through pre-wet nitrocellulose/cellulose acetate mixed matrix filters (0.45 µm pore size, Millipore Corporation, Bedford, Mass.) and the filters were immediately washed with 5 mL of binding buffer. The amount of DNA bound to the filters was quantitated by measuring the radioactivity of the filters by liquid scintillation counting. The quantity of DNA bound to filters in the absence of protein was used for background correction. The percentage of input DNA retained on each filter was plotted against the corresponding log of the polymerase concentration (FIGS. 1 and 2). […]

For series [2], the target named is T1, Taq DNA polymerase. Put plainly: inhibition; hairpin extension assay. To be noted: tags: rTaq, 94 kDa, Roche Molecular Systems / Perkin Elmer; stem-loop dimer. As for the experimental part: (§1) In a typical inhibition assay, a 20 μL reaction contained either 0.25 pmoles of Taq polymerase (5 U) or 0.125 pmoles of Tth polymerase (2.5 U), oligonucleotide inhibitor (at varying concentrations), 10 mM Tris-HCl (pH 8.3), 50 mM KCl, 2.5 mM MgCl_2, and 1 mM each dNTPs. Gel purified, 5'-end-labeled hairpin DNA substrate (DNA-HP; 5'-[…]-3') was then added to a final concentration of 250 nM and the reaction was incubated at 30° C. for 1 hour. The reaction was stopped by adding 5 μL of 0.5 M EDTA (pH 8.0) followed by formamide gel loading buffer. Extension products were resolved on 10% polyacrylamide gels under denaturing conditions. The amount of extension products were quantitated by phosphorimager. The amounts of products formed in the presence of inhibitor was normalized to the product formed in the absence of an inhibitor to obtain the percent of product.

The target in series [3] is T2, Tth DNA polymerase (UniProt P52028 P52028:1-834). Put plainly: inhibition; hairpin extension assay; IT50 34.5 C. To be noted: tags: rTth, 94 kDa, Roche Molecular Systems / Perkin Elmer. Here is the method:
as §1

For series [4], the target named is T1, Taq DNA polymerase. Put plainly: inhibition; hairpin extension assay; IT50 41 C. To be noted: tags: rTaq, 94 kDa, Roche Molecular Systems / Perkin Elmer. Here is the method:
as §1

For series [5], the target named is T1, Taq DNA polymerase. Put plainly: inhibition; room temperature 16 h, 12.5 nM Taq; 22 nM at 30 C 1 h; IT50 41 C. To be noted: tags: rTaq, 94 kDa, Roche Molecular Systems / Perkin Elmer. As for the experimental part:
(§2) Since the concentration of Taq polymerase used in the assay is 12.5 nM, enzyme inhibition by TQ30 (SEQ ID NO:50) is likely to be a result of stoichiometric binding.
as §1

Series [6] deals with T2, Tth DNA polymerase. As to the kind of experiment: inhibition; room temperature; IT50 29 C. To be noted: tags: rTth, 94 kDa, Roche Molecular Systems / Perkin Elmer. As for the experimental part:
as §2, §1

Series [7] deals with T1, Taq DNA polymerase. As to the kind of experiment: inhibition; room temperature 16 h, 12.5 nM Taq; 67 nM at 30 C 1 h; IT50 37 C. To be noted: tags: rTaq, 94 kDa, Roche Molecular Systems / Perkin Elmer. As for the experimental part: as §2, §1
Series [8] has as its target T1, Taq DNA polymerase. Put plainly: inhibition; hairpin extension assay, monomer. To be noted: tags: rTaq, 94 kDa, Roche Molecular Systems / Perkin Elmer; stem-loop. Here is the method:
as §1

The target in series [9] is T2, Tth DNA polymerase. As to the kind of experiment: inhibition; hairpin extension assay; IT50 35.6 C. To be noted: tags: rTth, 94 kDa, Roche Molecular Systems / Perkin Elmer. As for the experimental part: (§3) Deletion analysis of the full-length TQ21 sequence led to the identification of a 51-mer sequence (Trnc.21 (SEQ ID NO:70) (Table 4)) that retained the ability to inhibit both Taq and Tth polymerases. In addition to the entire 30-nucleotide random region, the Trnc.21 sequence contained 9 and 12 nucleotides from the 5' and 3' fixed regions, respectively (Table 4). […] The calculated $IT50$ values for Taq polymerase and Tth polymerase are 34° C. and 35.6° C., respectively (FIG. 13C). The hairpin extension assays were carried out between the temperatures of 35 and 50° C. for 1 hour with […] Trnc.21. Thus, based on the affinity and the values of $IC50$ and $IT50$, the truncated form of TQ21 is a better inhibitor than the full-length sequence.
as §1, with “conditions.” for “conditions. The amount of extension products were quantitated by phosphorimager. The amounts of products formed in the presence of inhibitor was normalized to the product formed in the absence of an inhibitor to obtain the percent of product.”

The target of series [10] is T1, Taq DNA polymerase. As to the kind of experiment: inhibition; hairpin extension assay; IT50 34 C. To be noted: tags: rTaq, 94 kDa, Roche Molecular Systems / Perkin Elmer. Here is the method:
as §3
as §1, with “conditions.” for “conditions. The amount of extension products were quantitated by phosphorimager. The amounts of products formed in the presence of inhibitor was normalized to the product formed in the absence of an inhibitor to obtain the percent of product.”

T1 sequence (P19821 whole entry, one chain of several): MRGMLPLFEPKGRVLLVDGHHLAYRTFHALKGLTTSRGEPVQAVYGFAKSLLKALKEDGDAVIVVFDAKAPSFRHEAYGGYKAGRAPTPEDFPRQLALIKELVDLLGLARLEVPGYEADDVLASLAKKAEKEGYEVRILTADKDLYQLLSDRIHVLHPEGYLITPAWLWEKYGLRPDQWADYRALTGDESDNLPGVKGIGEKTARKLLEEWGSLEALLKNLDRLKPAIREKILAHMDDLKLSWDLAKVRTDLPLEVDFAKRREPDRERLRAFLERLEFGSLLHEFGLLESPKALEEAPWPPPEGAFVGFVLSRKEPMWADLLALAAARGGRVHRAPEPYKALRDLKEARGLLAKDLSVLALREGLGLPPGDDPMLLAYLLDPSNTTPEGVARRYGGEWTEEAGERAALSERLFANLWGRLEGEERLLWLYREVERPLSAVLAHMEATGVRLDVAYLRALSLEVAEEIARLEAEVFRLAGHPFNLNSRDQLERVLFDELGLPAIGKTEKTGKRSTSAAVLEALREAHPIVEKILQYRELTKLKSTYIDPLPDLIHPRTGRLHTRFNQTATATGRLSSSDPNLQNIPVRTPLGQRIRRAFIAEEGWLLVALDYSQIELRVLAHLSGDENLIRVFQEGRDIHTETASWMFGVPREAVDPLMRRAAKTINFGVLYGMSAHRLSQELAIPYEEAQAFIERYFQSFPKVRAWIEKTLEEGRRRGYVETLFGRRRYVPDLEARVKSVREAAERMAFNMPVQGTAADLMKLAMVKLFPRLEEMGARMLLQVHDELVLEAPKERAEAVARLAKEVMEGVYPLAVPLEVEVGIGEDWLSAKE
T2 sequence (P52028 whole entry, one chain of several): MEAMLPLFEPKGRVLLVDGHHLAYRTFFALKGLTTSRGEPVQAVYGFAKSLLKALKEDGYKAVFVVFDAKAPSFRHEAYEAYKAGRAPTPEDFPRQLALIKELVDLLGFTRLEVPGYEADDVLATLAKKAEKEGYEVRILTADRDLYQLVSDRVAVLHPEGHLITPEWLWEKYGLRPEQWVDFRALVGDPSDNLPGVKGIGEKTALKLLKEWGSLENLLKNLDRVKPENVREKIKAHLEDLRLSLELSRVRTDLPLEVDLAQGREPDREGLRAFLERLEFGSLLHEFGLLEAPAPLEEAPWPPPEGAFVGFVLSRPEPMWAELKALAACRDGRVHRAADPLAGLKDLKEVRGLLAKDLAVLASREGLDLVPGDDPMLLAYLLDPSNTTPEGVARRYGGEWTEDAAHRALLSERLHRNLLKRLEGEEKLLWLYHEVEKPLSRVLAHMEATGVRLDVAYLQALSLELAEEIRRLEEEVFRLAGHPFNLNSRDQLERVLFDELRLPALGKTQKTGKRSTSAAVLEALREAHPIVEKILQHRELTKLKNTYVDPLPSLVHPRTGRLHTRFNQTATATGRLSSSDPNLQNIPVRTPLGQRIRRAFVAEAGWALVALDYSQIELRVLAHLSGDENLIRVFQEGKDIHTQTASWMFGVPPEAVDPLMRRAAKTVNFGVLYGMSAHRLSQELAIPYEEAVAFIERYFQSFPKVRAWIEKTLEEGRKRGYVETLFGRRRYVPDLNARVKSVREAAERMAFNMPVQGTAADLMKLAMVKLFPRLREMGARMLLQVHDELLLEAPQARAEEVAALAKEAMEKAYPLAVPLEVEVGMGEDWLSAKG

B1: D.30-D.30 homodimer (ssDNA)
DNA 1: GCCGGCCAATGTACAGTATTGGCCGGC
DNA 2: GCCGGCCAATGTACAGTATTGGCCGGC
modifications: two Trnc.2-30 copies joined with symmetrical 3'-3' branching CPG linker (linker region drawn in figure only)
The term Kd denotes the free concentration of one partner at which half of the binding sites on the other are occupied at equilibrium, for simple one-to-one binding. The IC50 is the concentration that inhibits the measured activity by half. Read a high IC50 as weaker potency in that assay. As for B1, the affinity with Taq DNA polymerase [1], expressed as Kd, was 0.0475 nM. Further, in the series with Taq DNA polymerase [2], 14 nM corresponded to half-maximal inhibition (IC50).

B2: D.21-D.30 heterodimer (ssDNA)
DNA: TGGCGGAGCGATCATCTCAGAGCATTCTTAGCGTTTTGTTCTTGTGTATGATTTGCCGGCCAATGTACAGTATTGGCCGGC
As for B2, the IC50 in the series with Tth DNA polymerase [3] and with Taq DNA polymerase [4] was approximately 30 nM in each case.

B3: TQ30 (ssDNA)
DNA: TTCTCGGTTGGTCTCTGGCGGAGCAAGACCAGACAATGTACAGTATTGGCCTGATCTTGTGTATGATTCGCTTTTCCC
As to B3, the results for the IC50 with Taq DNA polymerase [5] and with Tth DNA polymerase [6] were 6.5 nM and 60 nM, respectively.

B4: TQ21 (ssDNA)
DNA: TTCTCGGTTGGTCTCTGGCGGAGCGATCATCTCAGAGCATTCTTAGCGTTTTGTTCTTGTGTATGATTCGCTTTTCCC
Consider B4, for which the 50% inhibitory concentration (IC50) was found to be 10 nM with Taq DNA polymerase [7] and 36 nM in the series with Tth DNA polymerase [6].

B5: Trnc.2-30 (ssDNA)
DNA: GCCGGCCAATGTACAGTATTGGCCGGC
In turn, B5 displayed an IC50 with Taq DNA polymerase [8] of 48 nM.

B6: Trnc.21 (ssDNA)
DNA: TGGCGGAGCGATCATCTCAGAGCATTCTTAGCGTTTTGTTCTTGTGTATGA
Take B6: the half-maximal inhibitory concentration (IC50) with Tth DNA polymerase [9] came out at 36.5 nM; in the series with Taq DNA polymerase [10], 21 nM.
